Source: US20220389077A1, “ALLOGENEIC CELL COMPOSITIONS AND METHODS OF USE” (Poseida Therapeutics, Inc., priority 2018, published 2022)

How the values were obtained:
eK562-Luc.BCMA = assay: Luciferase killing assay, 48 hour co-culture; type: cell-based; conditions: 10:1, 3:1, 1:1 E:T
Method: After secondary expansion, cells (Mock (WT T cells), WT CAR-T cells, DKO CAR-T cells, DKO CAR-T cells+CD2z CSR, and DKO CAR-T cells+CD28z CSR) were co-cultured with engineered K562-BCMA-Luciferase (eK562-Luc.BCMA) or negative control line K562-PSMA-Luciferase (eK562-Luc.PSMA) for 48 hours at 10:1, 3:1, or 1:1 E:T ratios. Luciferase signal was measured to determine cytotoxicity. Killing of eK562-Luc.PSMA is shown in dotted lines, while killing of eK562-Luc.BCMA is shown in solid lines. All CAR^+ T cells expressed an anti-BCMA specific CAR.
CSRs were delivered to CAR-T cells either transiently by mRNA or stably by piggyBac®. Pan T cells isolated from the blood of a normal donor were genetically modified using the piggyBac® DNA modification system and the standard Poseida process. Cells were co-electroporated in a single reaction with mRNA encoding the Super piggyBac™ transposase enzyme (SPB), a transposon encoding a BCMA CAR and selection gene, along with an additional mRNA encoding a CSR (either CD28z or CD2z; resulting in transient expression), or, with a transposon encoding a BCMA CAR, selection gene and a CSR (either CD28z or CD2z; resulting in stable expression). The cells were subsequently stimulated with agonist mAbs anti-CD2, anti-CD3 and anti-CD28, and were later selected for genetic modification over the course of a 19 day culture period. At the end of the initial culture period all T cells expressed the CAR, indicating successful selection for genetically-modified cells (data not shown). To assess CAR-T cell ability to kill, cells were co-cultured with engineered K562-BCMA-Luciferase (eK562-Luc.BCMA) or negative control line K562-Luciferase (eK562-Luc) for 48 hours at 10:1, 3:1, or 1:1 E:T ratios. Luciferase signal was measured to determine cytotoxicity. Killing of eK562-Luc is shown in bar graph on left, while killing of eK562-Luc.BCMA is shown in bar graph on right.

DKO CAR-T cells = assay: Expansion of TCRb/b2M double-knockout (DKO) CAR-T cells after stimulation with agonist mAbs anti-CD2, anti-CD3 and anti-CD28; type: cell-based, human; conditions: 16 day culture; CSR delivered in piggyBac transposon
Excerpt: FIGS. 9A-9B are a series of plots showing that piggyBac® delivery of CSR enhances the expansion of TCRb/b2M double-knockout CAR-T cells. Pan T cells isolated from normal donor blood were genetically modified using the piggyBac® DNA modification system in combination with the Cas-CLOVER™ gene-editing system. Cells were electroporated in a single reaction with a transposon encoding a CAR, selection gene and a CSR (either CD28z or CD2z), an mRNA encoding the super piggyBac™ transposase enzyme, an mRNA encoding Cas-CLOVER™, and multiple guide RNA (gRNA) targeting TCRb and b2M in order to knockout the TCR and MHCI (double-knockout; DKO). The cells were subsequently stimulated with agonist mAbs anti-CD2, anti-CD3 and anti-CD28, and were later selected for genetic modification over the course of a 16 day culture period. At the end of the initial culture period all T cells expressed the CAR, indicating successful selection for genetically-modified cells (data not shown).

Pan T cells = assay: Surface expression of CSR and cellular activation (FSC-A, CD69) after mRNA electroporation of T cells; type: cell-based, human; conditions: for cellular activation (FSC-A, CD69): absence of exogenous stimulation; for surface expression by flow cytometry: two days after electroporation of 10 μg mRNA
Method: Pan T cells from normal blood donors were stimulated with anti-CD3/anti-CD28 beads in standard T cell culture media, then rested. These cells were then electroporated (BTX ECM 830 electroporator @ 500V for 700 μs) with 10 μg of mRNA encoding either CD28 CSR, CD2 CSR, or wild-type CD19 control. Two days later the electroporated cells were examined by flow cytometry for surface-expression of each molecule and data are shown as stacked histograms. In addition, cell size (FSC-A) and CD69 expression was evaluated as a possible indication of cellular activation above the Mock electroporated control cells.

Lag3, PD1, and Tim3 = assay: Flow cytometry for exhaustion molecules; type: cell-based, human; conditions: compared to mock T cells
Excerpt: Mock (WT T cells), WT CAR-T cells, DKO CAR-T cells, DKO CAR-T cells+CD2z, and DKO CAR-T cells+CD28z were examined by flow cytometry for the expression of important exhaustion molecules Lag3, PD1, and Tim3. […] This phenotype may have a negative impact on the in vivo functionality of these CAR T cells since they appear to be more exhausted.

purified DKO CAR-T cells = assay: Re-stimulation and secondary expansion of purified DKO CAR-T cells, with or without IL7 and IL15; type: cell-based, human; conditions: 14 day culture; re-stimulation
Method: After initial genetic modification and a first round of stimulation and expansion, cells from each group (Mock (WT CAR-T cells), DKO CAR-T cells, DKO CAR-T cells+CD2z CSR, and DKO CAR-T cells+CD28z CSR) were purified for TCR^−MHCI^− cells using magnetic beads. The purified cells were then re-stimulated using anti-CD2, anti-CD3, and anti-CD28 agonist mAbs. At the end of the 14 day culture period, TCR and MHCI expression (A) as well as magnitude of cell population expansion (B) was determined. After this secondary expansion, all purified DKO cells, including those expressing either CD2z or CD28z CSR, were still extremely pure for DKO cells (>98.8% DKO).
FIG. 11 is a graph showing that cytokine supplementation can further expand purified DKO CAR-T cells expressing CSR upon re-stimulation. After initial genetic modification and a first round of stimulation and expansion, cells expressing CSRs were purified for DKO cells using magnetic beads. The purified cells were then re-stimulated using anti-CD2, anti-CD3, and anti-CD28 agonist mAbs in the presence exogenous purified recombinant IL7 and IL15. At the end of the 14 day culture period, magnitude of cell population expansion was determined. After a secondary expansion, all purified DKO cells, including those expressing either CD2z or CD28z CSR, were still extremely pure for TCR^−MHCI^− cells (>98.8% double knockout (data not shown)). […]

[1] = CAR-T cells with transient (mRNA) or stable (piggyBac) CSR

Row | Molecule | in vitro cytotoxicity (luciferase signal) (eK562-Luc.BCMA; [1]) | in vitro cytotoxicity (luciferase signal) (eK562-Luc.BCMA; DKO CAR-T cells) | expansion of the cells in comparison to DKO CAR-T cells alone (DKO CAR-T cells) | cellular activation (FSC-A, CD69) (Pan T cells) | surface expression by flow cytometry (Pan T cells) | expression of exhaustion molecules Lag3, PD1, and Tim3 (Lag3, PD1, and Tim3) | magnitude of cell population expansion compared to those not expressing either CSR (purified DKO CAR-T cells)
1 | CD28z CSR: chimeric stimulatory receptor: CD28 signal peptide, extracellular, transmembrane and cytoplasmic domains with CD3z intracellular domain (SEQ ID NO: 17060) | not significantly affected | not significantly affected | at least a two fold expansion | did not intrinsically activate the cells | Increased surface expression | significant upregulation of exhaustion markers Lag3, PD1, and Tim3 | enhanced expansion
2 | CD2z CSR: chimeric stimulatory receptor: CD2 signal peptide, extracellular, transmembrane and cytoplasmic domains with CD3z intracellular domain (SEQ ID NO: 17062) (protein) MSFPCKFVASFLLIFNVSSKGAVSKEITNALETWGALGQDINLDIPSFQMSDDIDDIKWEKTSDKKKIAQFRKEKETFKEKDTYKLFKNGTLKIKHLKTDDQDIYKVSIYDTKGKNVLEKIFDLKIQERVSKPKISWTCINTTLTCEVMNGTDPELNLYQDGKHLKLSQRVITHKWTTSLSAKFKCTAGNKVSKESSVEPVSCPEKGLDIYLIIGICGGGSLLMVFVALLVFYITKRKKQRSRRNDEELETRAHRVATEERGRKPHQIPASTPQNPATSQHPPPPPGHRSQAPSHRPPPPGHRVQHQPQKRPPAPSGTQVHQQKGPPLPRPRVQPKPPHGAAENSLSPSSNRVKFSRSADAPAYKQGQNQLYNELNLGRREEYDVLDKRRGRDPEMGGKPRRKNPQEGLYNELQKDKMAEAYSEIGMKGERRRGKGHDGLYQGLSTATKDTYDALHMQALPPR | not significantly affected | not significantly affected | at least a two fold expansion | did not intrinsically activate the cells | Increased surface expression | little to no expression of exhaustion molecules | enhanced expansion
